Experimental data as given in US20250277030A1 (Zymeworks, published 2025).

How the values were obtained:
[1] = biological target: T1, human sodium-dependent phosphate transporter 2B (NaPi2b) (human, UniProt O95436 1-690); experiment: flow cytometry on HCC-78 cells (endogenous NaPi2b), 4 C, anti-human IgG Fc AF647 detection
T1 construct: UniProt ID is given as 095436 [sic]; also called hNaPi2b; Hu NaPi2b
T1 sequence: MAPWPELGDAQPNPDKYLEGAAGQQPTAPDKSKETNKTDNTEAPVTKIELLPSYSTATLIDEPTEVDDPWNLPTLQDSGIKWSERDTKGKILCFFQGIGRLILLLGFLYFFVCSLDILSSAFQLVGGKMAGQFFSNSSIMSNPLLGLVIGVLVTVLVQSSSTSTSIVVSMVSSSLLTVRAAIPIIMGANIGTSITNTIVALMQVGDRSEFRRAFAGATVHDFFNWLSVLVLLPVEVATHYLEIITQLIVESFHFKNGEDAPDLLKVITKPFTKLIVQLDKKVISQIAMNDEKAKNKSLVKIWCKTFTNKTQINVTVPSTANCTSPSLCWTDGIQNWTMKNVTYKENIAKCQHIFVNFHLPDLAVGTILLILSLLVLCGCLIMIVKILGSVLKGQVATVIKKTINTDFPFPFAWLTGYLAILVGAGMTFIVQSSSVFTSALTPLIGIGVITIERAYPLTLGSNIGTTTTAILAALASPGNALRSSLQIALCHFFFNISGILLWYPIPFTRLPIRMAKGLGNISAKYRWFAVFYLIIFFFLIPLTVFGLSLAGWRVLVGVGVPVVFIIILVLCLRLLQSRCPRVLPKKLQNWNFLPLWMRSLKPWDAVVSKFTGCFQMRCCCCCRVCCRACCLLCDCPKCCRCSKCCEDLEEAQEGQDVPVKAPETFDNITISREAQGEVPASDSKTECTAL
Method: (§1) Briefly, HEK293-6e cells were transfected for ˜24 hours to transiently express human NaPi2b, cynomolgus or mouse NaPi2b, at 1 μg of DNA per 1 million cells. Following transfection, 50,000 cells per well were seeded in V-bottom 96-well plates and incubated with 200 nM of primary antibody for 18-24 hours at 4° C. to prevent internalization. Post-incubation, cells were washed and stained with anti-Human IgG Fc AF647 conjugate (Jackson Immuno Research Labs, West Grove, PA, Cat. No. 109-605-098, Lot. No. 124868) at 4° C. for 1 hour. Following staining and washing, fluorescence was detected by flow cytometry on BD LSRFortessa™ Cell Analyzer (BD Biosciences, Franklin Lake, NJ) with 10,000 minimum events collected per well. The AF647/APC-A GeoMean (fluorescence signal geometric mean, proportional to anti-Human AF647 binding) was calculated for the live singlet cell population for each primary antibody using FlowJo™ v8 software (BD Biosciences, Franklin Lake, NJ). The Bmax and Kd of each primary antibody were calculated using GraphPad Prism Version 9 (GraphPad Software, San Diego, CA)
The ability of ADCs to bind to cells expressing NaPi2b was assessed. […] Binding to endogenous high NaPi2b-expressing cell lines IGROV-1 and HCC-78 was assessed by flow cytometry according to methods described in Example 5.

mouse NaPi2b = biological target: T2, mouse NaPi2b (mouse, UniProt Q9DBP0 1-697); experiment: flow cytometry, HEK293-6e cells transfected with mouse NaPi2b; apparent Kd
T2 construct: Transiently expressed on HEK293-6e cells; also called Ms NaPi2b
T2 sequence: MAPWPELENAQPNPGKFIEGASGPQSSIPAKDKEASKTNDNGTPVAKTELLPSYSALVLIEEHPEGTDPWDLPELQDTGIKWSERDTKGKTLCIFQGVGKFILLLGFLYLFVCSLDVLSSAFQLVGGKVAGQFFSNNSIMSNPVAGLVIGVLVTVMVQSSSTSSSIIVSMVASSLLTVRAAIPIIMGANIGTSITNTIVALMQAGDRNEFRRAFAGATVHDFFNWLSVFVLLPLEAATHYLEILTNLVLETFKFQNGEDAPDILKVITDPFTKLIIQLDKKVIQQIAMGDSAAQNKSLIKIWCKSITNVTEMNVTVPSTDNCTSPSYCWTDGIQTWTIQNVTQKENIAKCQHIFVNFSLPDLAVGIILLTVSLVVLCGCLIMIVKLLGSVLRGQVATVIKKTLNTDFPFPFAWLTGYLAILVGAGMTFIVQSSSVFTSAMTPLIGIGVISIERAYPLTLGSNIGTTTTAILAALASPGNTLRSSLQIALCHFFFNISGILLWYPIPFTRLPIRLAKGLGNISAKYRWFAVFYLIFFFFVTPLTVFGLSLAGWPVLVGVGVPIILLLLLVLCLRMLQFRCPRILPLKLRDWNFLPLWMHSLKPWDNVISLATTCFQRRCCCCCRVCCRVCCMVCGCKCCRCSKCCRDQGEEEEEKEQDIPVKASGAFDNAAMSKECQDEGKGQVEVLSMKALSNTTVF
Method: (§2) The binding cross-reactivity of humanized antibody variant v29456 to human, cynomolgus and mouse NaPi2b was assessed by flow cytometry using HEK293-6e transfected cells.
as §1

[2] = biological target: T1, human sodium-dependent phosphate …; experiment: flow cytometry, HEK293-6e cells transfected with human NaPi2b; apparent Kd
Method: as §2, §1

[3] = biological target: T3, KLH (Sigma-Aldrich, H8283); experiment: non-specific binding ELISA, KLH coated at 5 µg/mL, antibody at 100 nM
T3 construct: also called keyhole limpet hemocyanin
Method: NS-ELISA was carried out in Corning®96-well EIA/RIA Easy Wash™ Clear Flat Bottom Polystyrene High Bind Microplate coated overnight at 4° C. with 50 μL of Heparin (Sigma, H3149) diluted with 50 mM sodium carbonate pH 9.6 to a final concentration of 250 μg/mL. The plate was incubated for 2 days at room temperature, wells that were coated with heparin were not covered to allow air dry. […] 50 μL each of insulin, KLH, dsDNA and ssDNA were added to a 96 well plate, followed by the incubation at 37° C. for 2 h. The coating materials were removed, and the plate was blocked with 200 μL of Gibco™ PBS pH7.4, 0.1% Tween®20, and incubated for 1 h at room temperature with shaking at 200 rpm. The plate was washed 3 times with Gibco™ PBS pH7.4, 0.1% Tween 20. […] Reactions were stopped after approximately 10 minutes by adding 100 μL of 1 M HCl to each well, and absorbance was read at 450 nm. Binding scores were calculated as the ratio of the ELISA signal of the antibody (antibody-treated) to the signal of a well containing buffer instead of the primary antibody (untreated). The cutoffs considered for each binding molecule (ssDNA, KLH, insulin, dsDNA and heparin) were internally calculated, based on the average of Zymeworks Inc. produced antibodies and antibodies benchmarks published in the literature.

[4] = biological target: T1, human sodium-dependent phosphate …; experiment: flow cytometry, IGROV-1 cells (endogenous NaPi2b), 24 h at 4 °C; apparent Kd
In short: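 IGROV-1 cells were incubated with test antibody for 24 hours at 4° C to prevent internalization, then stained with anti-human IgG Fc AF647 for 30 min at 4° C. AF647 geometric mean fluorescence of live cells was measured by flow cytometry and plotted per antibody.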

[5] = biological target: T1, human sodium-dependent phosphate …; experiment: flow cytometry, HEK293-6e cells transfected with human NaPi2b
Method: as §2, §1

EC50 (read off the curve) [1]: ~2 nM
Kd (mouse NaPi2b): 10.6 nM
Kd [2]: 5.2 nM
NS-ELISA binding score (ratio of signal between antibody-treated and untreated) [3]: 1.37 ratio
Kd [4]: 1.1 nM
Bmax (APC-A GeoMean) [5]: 2540 APC-A GeoMean
B1: v29456 humanized anti-NaPi2b antibody (H1L2) (antibody, human IgG1, kappa)
heavy: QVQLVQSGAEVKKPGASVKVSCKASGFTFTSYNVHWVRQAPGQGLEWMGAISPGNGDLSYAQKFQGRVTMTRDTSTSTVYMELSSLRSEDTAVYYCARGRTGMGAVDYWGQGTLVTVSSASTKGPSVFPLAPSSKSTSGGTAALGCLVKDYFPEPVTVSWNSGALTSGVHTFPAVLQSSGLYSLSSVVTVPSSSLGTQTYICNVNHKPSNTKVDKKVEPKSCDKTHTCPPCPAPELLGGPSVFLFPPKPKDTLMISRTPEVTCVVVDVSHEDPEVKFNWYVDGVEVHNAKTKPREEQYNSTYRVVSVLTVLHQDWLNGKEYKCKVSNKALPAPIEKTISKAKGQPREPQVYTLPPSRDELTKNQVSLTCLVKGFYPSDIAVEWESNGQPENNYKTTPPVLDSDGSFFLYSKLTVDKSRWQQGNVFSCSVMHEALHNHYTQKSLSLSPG
light: DVQMTQSPSSLSASVGDRVTITCRASQDVYSYLNWYQQKPGKAVKLLIYYTSRLQSGVPSRFSGSGSGTDYTLTISSLQPEDFATYYCQQYNIFPWTFGQGTKLEIKRTVAAPSVFIFPPSDEQLKSGTASVVCLLNNFYPREAKVQWKVDNALQSGNSQESVTEQDSKDSTYSLSSTLTLSKADYEKHKVYACEVTHQGLSSPVTKSFNRGEC
